Results on 2 substances are retold here after PMC3985474.

Like-named read-outs stand apart in the source and are kept apart here.

Holding throughout (assay): AUC
Test [1] has as its target SynB1-Cys-ELP1.
Test [2] deals with SynB1-Cys-ELP1. The source holds these as a separate data set.
For test [3], the target named is Bac-Cys-ELP1.
The target of test [4] is Bac-Cys-ELP1. This is another data set of the same source.

In the case of SynB1-Cys-ELP1, the Ka is 1480 M⁻¹ in the test with SynB1-Cys-ELP1 [1] and 597 M⁻¹ with SynB1-Cys-ELP1 [2].

With Bac-Cys-ELP1, the Ka with Bac-Cys-ELP1 [3] came out at 1290 M⁻¹; with Bac-Cys-ELP1 [4], 552 M⁻¹.
